Results on four molecules are retold here after patent US6255062A, “β-type DNA polymerases” (priority 1994, dated 2001).

Data set [1] has as its system DNA polymerases α, δ and ε. The note with it: cited from earlier work.
In data set [2] the target is T1, yeast β-type DNA polymerase (Saccharomyces cerevisiae, UniProt P25615).
T1 construct: made in house; host or cells: Saccharomyces cerevisiae BJ5459 carrying pGAL18HAβ, galactose induced; 12CA5 immunoprecipitate on protein A beads
The experiment in a line: Inhibitor sensitivity of DNA polymerase activity in 12CA5 immunoprecipitates. It counts as biochemical. To be noted: for Polβ Activity (1): experiment 1; for Polβ Activity (2): experiment 2.

Data set [3] deals with activated DNA or poly dA-oligo dT primer-template. Put plainly: DNA polymerase activity in 12CA5 immunoprecipitates. The class given is biochemical. To be noted: for Polβ Activity (1): experiment 1; for Polβ Activity (2): experiment 2.
In data set [4] the test system is poly dT labeled at the 3'-end with terminal transferase. Put plainly: 3' exonuclease activity. The class given is biochemical. The note with it: data not shown.
In data set [5] the test system is dA-dT and rA-dT primer-templates. Put plainly: rNTP incorporation and reverse transcriptase activities of immunoprecipitated polymerase. It counts as biochemical.
The mark [6] stands for this setting: primer-template DNA, Aphidicolin (30 μg/ml), compare dCTP (10 mM) control.
[7] abbreviates: dA-dT (20:1), dTTP (10 mM)/ddTTP (10 mM).

As for `C[C@@]1(CO)[C@H](O)CC[C@@]2(C)[C@H]1CC[C@H]1C[C@@H]3C[C@@]12CC[C@]3(O)CO` [Aphidicolin, aphidicolin], in data set [1] (aphidicolin 30 μg/ml), the “inhibition of DNA polymerases α, δ and ε” value is “completely inhibits”. Also, the “sensitivity of yeast β-type DNA polymerase to aphidicolin” value in data set [2] (30 μg/ml) is given as “resistant”. For the same molecule, in data set [2] (setting [6]), the “Polβ Activity (1)” value came to 162 and the “Polβ Activity (2)” value amounted to 78.

As for `Cc1cn([C@H]2CC[C@@H](COP(=O)(O)OP(=O)(O)OP(=O)(O)O)O2)c(=O)[nH]c1=O` [ddTTP, dideoxythymidine triphosphate], the “inhibition of DNA polymerase α, δ and ε” value in data set [1] (ddTTP at the levels used here) was “does not inhibit”. Also, in data set [2] (setting [7]), the “Polβ Activity (1)” value was found to be 11 and the “Polβ Activity (2)” value is 6. Further, the “effect of ddTTP on yeast β-type DNA polymerase” value in data set [2] (levels used in Table 2) was “inhibited”.

Turning to `CCN1C(=O)C=CC1=O` [NEM, N-ethylmaleimide], the “sensitivity of yeast β-type DNA polymerase to N-ethylmaleimide” value in data set [2] (10 mM) is on record as “sensitive”. The “Polβ Activity (1)” value in data set [2] (primer-template DNA, NEM (10 mM)) is reported as 8.

B1: HA polβ: β-type DNA polymerase from S. cerevisiae (POL4, SEQ ID NO:2) tagged at NH2 terminus with influenza hemagglutinin epitope (protein)
chain: MSLKGKFFAFLPNPNTSSNKFFKSILEKKGATIVSSIQNCLQSSRKEVIILIEDSFVDSDMHLTQKDIFQREAGLNDVDEFLGKIEQSGIQCVKTSCITKWVQNDKFAFQKDDLIKFQPSIIVISDNADDGQSSTDKESEISTDVESERNDDSNNKDMIQASKPLKRLLQEDKGRASLVTDKTKYKNNELIIGALKRLTKKYEIEGEKFRARSYRLAKQSMENCDFNVRSGEEAHTKLRNIGPSIAKKIQVILDTGVLPGLNDSVGLEDKLKYFKNCYGIGSEIAKRWNLLNFESFCVAAKKDPEEFVSDWTILFGWSYYDDWLCKMSRNECFTHLKKVQKALRGIDPECQVELQGSYNRGYSKCGDIDLLFFKPFCNDTTELAKIMETLCIKLYKDGYIHCFLQLTPNLEKLFLKRIVERFRTAKIVGYGERKRWYSSEIIKKFFMGVKFSPRELEELKEMKNDEGTLLIEEEEEEETKLNPIDQYMSLNAKDGNYCRRLDFFCCKWDELGAGRIHYTGSKEYNRWIRILAAQKGFKLTQHGLFRNNILLESFNERRIFELLNLKYAEPEHRNIEWEKKTA
modifications: N-terminal HA epitope tag
In the case of B1, in data set [3], the “DNA polymerase activity relative to controls” value is on record as 10 fold. Also, in data set [3], the “synthesis on the poly dA template alone (primer requirement)” value is “No synthesis was observed”. The “Polβ Activity (1)” value in data set [3] ([…], Complete) amounted to 101; in data set [3] ([…], dCTP (10 mM)), 212; in data set [3] (dA-dT (10:1), Complete), 105; in data set [3] (dA-dT (20:1), Complete), 293; in data set [3] (dA-dT (20:1), dTTP (10 mM)) it was 95. Moreover, the “Polβ Activity (2)” value in data set [3] ([…], dCTP (10 mM)) was determined as 106; in data set [3] (dA-dT (10:1), Complete) it was 244; in data set [3] (dA-dT (20:1), Complete), 411; in data set [3] (dA-dT (20:1), dTTP (10 mM)) it was 102. Also, the “3' exonuclease activity” value in data set [4] is recorded as “no 3' exonuclease activity”. In addition, the processivity result in data set [5] is “processivity is low”. Moreover, the Activity was 480 pmol in data set [5] (dA-dT, 3H NTP T, Mg, Experiment 1); 769 pmol in data set [5] (dA-dT, 3H NTP T, Mn, Experiment 1); 110 pmol in data set [5] (dA-dT, 3H NTP U, Mg, Experiment 1); 187 pmol in data set [5] (dA-dT, 3H NTP U, Mg, Experiment 2); 202 pmol in data set [5] (dA-dT, 3H NTP U, Mn, Experiment 1); 209 pmol in data set [5] (dA-dT, 3H NTP U, Mn, Experiment 2). Further, the Activity is 65 pmol in data set [5] (rA-dT, 3H NTP T, Mg, Experiment 1); 81 pmol in data set [5] (rA-dT, 3H NTP T, Mg, Experiment 2); 191 pmol in data set [5] (rA-dT, 3H NTP T, Mn, Experiment 1); 59 pmol in data set [5] (rA-dT, 3H NTP T, Mn, Experiment 2); 32 pmol in data set [5] (rA-dT, 3H NTP U, Mg, Experiment 2); 55 pmol in data set [5] (rA-dT, 3H NTP U, Mn, Experiment 2). Besides, the reverse transcriptase activity result in data set [5] (in the presence of either Mg++ or Mn++) is on record as “significant reverse transcriptase activity”.
